The data set has as its target TDP-43 RRMs (RRM1-RRM2) (UniProt Q13148). In words: EMSA (multiplexed). To be noted: 20 mM Tris-HCl pH 7.5, 150 mM KCl, 5 mM MgCl2, 10% glycerol, 30 min, room temperature, 2 nM each labeled RNA (mEMSA), 5.5% TBE gel (4% for competition). On the technique in general: A gel shift assay detects complexes by their altered migration in electrophoresis.
Where [1] appears, read: 5 mM Mg2+, fluorophore-UTP incorporated during transcription.
The mark [2] stands for this setting: 5 mM Mg2+, fluorophore-UTP incorporated during transcription (labeled form).

The values below come from publication PMC11871449.

Chain of UniProt Q13148 (Q13148 101-269): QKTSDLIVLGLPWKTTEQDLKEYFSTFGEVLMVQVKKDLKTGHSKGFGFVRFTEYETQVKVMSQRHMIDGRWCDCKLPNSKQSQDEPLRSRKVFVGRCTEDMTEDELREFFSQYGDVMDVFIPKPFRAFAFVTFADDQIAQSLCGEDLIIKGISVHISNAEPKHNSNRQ

Broadly, the Kd is the free concentration of one partner at which half of the binding sites on the other are occupied at equilibrium, for simple one-to-one binding. A higher Kd goes with lower affinity. In the case of “AACACCAUGCUGGUUAUUUUGGCGGCUGUAGUUGUGGGGGGAUGUGUGUGUGCACGUGUGUGUGUGUGUGUGUGUGUGUGUGUGUGUGUGUGUUCUGUGACCUCCUGUCCCCAUGGUACGUCCCACCCUGUCCCCAGAUCCCCUAUUCCCUCCACAAUAACAGAAACACUCCCAGGGACUCUGGGGAGAGGCUGAGGACAAAUACCUGCUGUCACUCCAGAGGACAUUUUUUUUAGCAAUAAAAUUGAG [SLC1A5[2620-2869] 3'UTR]”, the Kd under setting [1] was found to be 82 nM. The sequence “AUCCCGCUGCUAUUAGAAUGCAUUGUGAAACGACUGGAGUAUGAUUAAAAGUUGUGUUCCCCAAUGCUUGGAGUAGUGAUUGUUGAAGGAAAAAAUCCAGCUGAGUGAUAAAGGCUGAGUGUUGAGGAAAUUUCUGCAGUUUUAAGCAGUCGUAUUUGUGAUUGAAGCUGAGUACAUUUUGCUGGUGUAUUUUUAGGUAAAAUGCUUUUUGUUCAUUUCUGGUGGUGGGAGGGGACUGAAGCCUUUAGUCUUUUCCAGAUGCAACCUUAAAAUCAGUGACAAGAAACAUUCCAAACAAGC [MALAT1[6638-6938]]” yielded a Kd (fluorophore-UTP incorporated during transcription) of 127 nM. With “GAUUGAUGGUGGUGCCGAGGCAUGAAAGGCUAGUAUGAGCGAGAAAAGGAGAGAGCGCGUGCAGAGACUUGGUGGUGCAUAAUGGAUAUUUUUUAACUUGGCGAGAUGUGUCUCUCAAUCCUGUGGCUUUGGUGAGAGAGUGUGCG [TARDBP[2140-2283] 3'UTR]”, under setting [2], the Kd came to 272 nM.

In turn, “GCGAGGAGCCUUUCAUCCGAAGGCGGGACGAUGCCGGAUAAUCGGCAGCCGAGGAACCGGCAGCCGAGGAUCCGCUCCGGGAACGAGCCUCGUUCCGCGCCCGCCAUGGAACCGGAUGGUCGCGGUGCCUGGGCCCACAGUCGCGCCGCGCUCGACCGCCUGGAGAAGCUGCUGCGCUGCUCGCGUUGUACUAACAUUCUGAGAGAGCC [BARD1[86-310] negative control]” had a Kd under setting [2] of 1790 nM. “GUGGGCUUUUCCAUUGUCCCCCUGGCCUCCAGGCUCCUCCUCUGCCUCUCCAUGGAGUGGGUGGGGAGGUGGUGGGGGCCGGCGUCCCCUGCGUGUGUGUGUGUGUGUGUGUGUGUGUGUGGAUGUAUUGACCUGUGUUUCCCAAGACAGCAGGUGCCACGGCCCGCCCCGCCUGCCAGCCCGAAUUCCCGUUCUCCUGUGUCUACUAACAAGGACGGAUCCAGCU [CSNK1E[2054-2264] 3'UTR]”: the Kd under setting [1] is 101 nM. The same measure, in the same setting: with “UGGCUAUCCUUUAAUGAUGCGUGUGGAAUGUGUGUGUGUGCUCAGGCAAUUAUUUUGCUAAGAAUGUGAAUUCAAGUGCAGCUCAAUACUAGCUUCAGUAUAAAAACUGUACAGAUUUUUGUAUAGCUGAUAAGAUUCUCUGUAGAGAAAAUACUUUUAAAAAAUGCAGGUUGUAGCUUUUUGAUGGGCUACUCAUACAGUUAGAUUUUACAGCUUCUGAUGUUGAAUGUUCCUAAAUAUUUAAUGGUUUUUUUAAUUUCUUGUGUAUGGUAGCACAGCAAAGCUU [HMGB2[739-1022] 3'UTR]” the figure was 148 nM.
